Measurements from the nanobody polyreactivity screen of Harvey et al. (2022).

assay: yeast display, Sf9 membrane polyspecificity reagent, FACS + sequencing; frameworks hold sequencing errors
Procedure, shortened: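 Nanobodies from a synthetic yeast display library (Saccharomyces cerevisiae BJ5465), induced 36–48 hours with galactose, were stained 1 hour at 4 °C with 10% biotinylated, detergent-solubilized Sf9 membrane reagent, enriched on streptavidin microbeads, then FACS-sorted. Anti-HA (expression) and streptavidin (reagent binding) fluorescence set low and high (top ~1%) gates. Polyreactivity labels come from the gate of origin. Genes were colony-PCR amplified, MiSeq 2 × 250 sequenced and filtered by CDR length.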

| Sequence | polyreactivity (PSR sort gate) |
| --- | --- |
| QVQHVESGGGLVQAGGSLRLSCAASGRTFIINTMGWYRQAPGKERELVAAISKFGATTNYADSVKGRFTISRDNAKNTVYLQMNSLKPEDTAVYYCNARYSGYLRLDYWGQGTQVTVSS | low polyreactivity |
| QVQHVESGGGLVQAGGSLRLSCAASGRTFNAYTMGWYRQAPGKERELVAAITSSGGNTYYADSVKGRFTISRDNAKNSVYLQMNSLKPEDTAVYYCNTVYLYGTHDYWGQGTQVTGSS | low polyreactivity |
| QVQHVESGGGLVQAGGSLRLSCAASGRTFNFNTMGWYRQAPGKERELVASITSGGSTNYADSVKGRFTISRDKAKNTVYLQMNSLKPVDTAVYYCATRTTTFWFDYWVQGTQVTVSS | low polyreactivity |
| QVQHVESGGGLVQAGGSLRLSCAASGRTFPINAMGWYRPAPGKERELVARISRTSGSTYYADSVKGRFTISRDNAKNTVYLQMNSLKPEDTAVYYCAAVRDKYFRASYGYWGQGTQVTVSS | high polyreactivity |
| QVQHVESGGGLVQAGGSLRLSCAASGRTFSWYVMGWYRQSPGKERELVAAISWNGGRTYYADSVKGRFTISRDNAKNTVYLQMNSLKPEDTAVYYCAAKSYHGYPFDYWGQGTQVTVSS | high polyreactivity |
| QVQHVESGGGLVQAGGSLRLSCAASGRTFVLYTMGWYRQAPGKERELVAAISGSGGRTYYADSVKGRFTISRDNAKNTVYLQMNSLKPEDTAVYYCAAYGQGLPLYGYWGQGTQVTVSS | high polyreactivity |
| QVQHVESGGGLVQAGGSLRLSCAASGRTFVYYVMGWYRQAPGKESELVAAITGSGDSTYYADSVKGRFTISRDNAKNNVYLQMNSLKPEDTAVYYCAARRGTRYYDFGYYYWGQGTKVTVSS | high polyreactivity |
| QVQHVESGGGLVQAGGSLRLSCAASGRTFYKNTMGWYRQAPGKERELVAGISQRGGRTYYADSVKGRFTISRDNAKNTVYLQMNSLEPEDTAVYYCNKRRAAGGFPFDYWGQGTQVTVSS | high polyreactivity |
| QVQHVESGGGLVQAGGSLRLSCAASGRTFYRNAMGWSRQAPGKELELVAAITRSGGSTYYADSVKGRFTTSRDNAKNTVYLQMNSLQPEDTAVYYCARRLYPYRPTPYDYWGQGTQVTVSS | low polyreactivity |
| QVQHVESGGGLVQAGGSLRLSCAASGRTFYYNDMGWSRQAPGKERELVAAISWSGVSTSYADSVKGRFTISRDNAKNTVYLQMNSLKPEDTAVYYCAADNDGWYFHITEYDYWGQGTQVTVSS | low polyreactivity |
| QVQHVESGGGLVQAGGSLRLSCAASGRTSYTNAMGWSRPAPGKERELVAAINYSGGSTYYADSVKGRYTISRDNAKNTVYLQMNSLKPEDTAVYYCAAERYYWYTEMGYWGQGTQVTVSS | high polyreactivity |
| QVQHVESGGGLVQAGGSLRLSCAASGRTVASYAMGWYRPAPGKERELVAVITRGGRTYYADSVKGRFTISRDNAKNTVYLQLNSLKPEDTAVYYCKAAYYSSSYLEDSWGHGTQVTVSS | high polyreactivity |
| QVQHVESGGGLVQAGGSLRLSCAASGSIFAHYTMGWYRQAPGKERELVAVISRSGARTYYADSVKGRFTISRDNAKNTVYLQMNSLKPEDTAVYYCAADRNLEEDYWGLGTQVTVSS | low polyreactivity |
| QVQHVESGGGLVQAGGSLRLSCAASGSIFASYAMGWYRLAAGKERELVAAISRRAVLTYYADSVKGRFTISRDNPKNTVYLQMNSLKPEDTAVYFCNARGYSGYQRYGYNYWGQGTQVTVSS | high polyreactivity |
| QVQHVESGGGLVQAGGSLRLSCAASGSIFIPNAMGWYRQAPGKERELVAAITSGGRTYYADSVKGRFTISRDNAKNTVYLQMNSLKPEDTAVYYCAARSGYRYVESEYWGQGTQVTVSS | high polyreactivity |
| QVQHVESGGGLVQAGGSLRLSCAASGSIFLPYAMGWYRQAPGKQRELVAAISDRGSTYYADSVKGRFTISRDNAQNTVYLHMNSVKAEDTAVYYCAKVYLLFVGALQFDYWGQGTQVTVSS | low polyreactivity |
| QVQHVESGGGLVQAGGSLRLSCAASGSIFNRYAMGWYRQAPGKERELVAAITYNGGSTYYADSVKGRFTISRDNAKNTVYLQMNSLKPEDTAVYYCAAERYNGYDYWGQGTQVTVSS | high polyreactivity |
| QVQHVESGGGLVQAGGSLRLSCAASGSIFVNNAMGWYRQAPGKERELVAAIRRSGGNTYYADSVKGRFTISRDNAKNTVYLQMNSLKPEDTAVYYCNVVRRADSIRAKSRDYWGQGTQVTVSS | high polyreactivity |
| QVQHVESGGGLVQAGGSLRLSCAASGSIFYVNAMGWYRQAPGKERELVAAITRDGSTNYADSVKGRFTISRDNAKNTVYLQMNSLKPEDTAVYYCAADFVRYIDREDYWGQGTQVTVSS | low polyreactivity |
| QVQHVESGGGLVQAGGSLRLSCAASGSIFYVYAMGWYRQAPGKERELVASINKSGGSTYYADSVKGRFTISRDNAKNTVYLQMNSLKPEDTAVYYCAARTGWPRVGFQYPAHVGFDYWGQGTQVTVSS | low polyreactivity |

| Sequence | polyreactivity (PSR sort gate) |
| --- | --- |
| QVQHVESGGGLVQAGGSLRLSCAASGSIFYYYTMGWYRQAPGKERELVAAITSGGSTYYADSVKGRFTISRDNAKNTVYIQMNSLKPDDTAVYYCAAEYHSFLWDMDYWGQGTQVTVST | high polyreactivity |
| QVQHVESGGGLVQAGGSLRLSCAASGSIISYYAMGWSRQQPGKERELVAAITANGGSTSYADSVKGRFTISRDNAKNTVYLQMNSLKPEVTAVYYCAKESDYPYYVSTKGDYDYWGQGTQVTVSS | low polyreactivity |
| QVQHVESGGGLVQAGGSLRLSCAASGSTFAFNTMGWYRQSPGKEWELVAGISSNGGRTYYADSVNGRFTISRDNAKNTVYLQMNSLKPEDTAVYYCNRASVFHYRWYYYWGQGTQVTVSS | high polyreactivity |
| QVQHVESGGGLVQAGGSLRLSCAASGSTFAVYTMGWYRQAPGKERELSTSYADSVKGRFTISRDNAKNTVYLQMNSLKPEDTAVYYCNRDFYEFDSNSYRFDYWGQGTQVTVSS | low polyreactivity |
| QVQHVESGGGLVQAGGSLRLSCAASGSTFDDNTMGWYRQATGKERELVAAITRSGGSTYYADSVKGRFTISRDNAKNTVYLQMNSLKPEDTAVYYCATYPYSPYYYVYVEPYDYWGQGTQVTVSS | low polyreactivity |
| QVQHVESGGGLVQAGGSLRLSCAASGSTFDSNDMGWYRQAPGKEWELVPGITWSGASTYYADSVKGRFTISRDNAKNTVYLQMNSLKPEDTAVYYCAAGPWGTGHYVQGPVYYYRYDYWGQGTQVTVSS | low polyreactivity |
| QVQHVESGGGLVQAGGSLRLSCAASGSTFDVYALGWDRQAPGKERELVAAISESGSSTYYADSVKGRFTISRDNAKHTVYLQMNSLKPEDTAVYSCNALYYDWHPEYQVIFSYFYYWGQGTQVTVSS | low polyreactivity |
| QVQHVESGGGLVQAGGSLRLSCAASGSTFNSYDKGSYRQAPGKERELVAAISSSAASTYYADSVKGRFTISRDNAKKTGYLQMNSLKPEDTAVYYCAAYVYYTYPSCTVYSVSYIYDYWAQGTQVTVSS | low polyreactivity |
| QVQHVESGGGLVQAGGSLRLSCAASGSTFSANAMGWYRQAPGKERELVAVIRRGGSTTYADSVKGRFTISRDNAKNTVYLQMNSLKPEDTAVYYCNARVTLGRPLFTYLVRYEYWGQGTQVTVSS | high polyreactivity |
| QVQHVESGGGLVQAGGSLRLSCAASGSTFSKYAMGWYRLAPGKERELVAAINYGGTSTYYADSVKGRFTISRDNAKNTVYLQMNSLKPEDTAVYYCAVIYRRLYTGGQNPYDYWGQGTQVTVSS | high polyreactivity |
| QVQHVESGGGLVQAGGSLRLSCAASGSTFWRYAMGWYRQAPGKERELVAAISTSGGSTRYADSVKGRFTISRDNAKNTVYFQMKSLKPEDTEVYYCADRSVSSTSYGYWGQGTQVTVSS | high polyreactivity |
| QVQHVESGGGLVQAGGSLRLSCAASGSTFYIYAMGWYRQAPGKERELVATITDGGSTNFADSVKGRFTISRDNAKNTVYLQMNSLKPEDTAVYYCNANVWTGYDYWGLGTQVTVSS | low polyreactivity |
| QVQHVESGGGLVQAGGSLRLSCAASGSTFYLYAMGWYRQAPGTERELLAAITYSGDRTRYADSVKGRFTISRDNAKNTVYLQMNSLKPEDTAVYYCAAPYVGARNAYRMCYWGQGTQVTVSS | high polyreactivity |
| QVQHVESGGGLVQAGGSLRLSCAASGSTISNNAMGWYRQAPGKERELVAGINSSGGRTYYADSVKGRFTISRDNAKNTVYLQMNSLKPEDTAVYYCNADNFRRYGYWGQGTQVTVSS | high polyreactivity |
| QVQHVESGGGLVQAGGSLRLSCAASGSTSDTNVMGWYRQDPGKERELVAAISYDDDRTYYADSVKGRFTISSDNAKNTVYLQMNSLKPEDTAVYYCATADDYPGDDYLEGGYWGQGTQVTVSS | low polyreactivity |
| QVQHVESGGGLVQAGGSLRLSCAASGSTYGYYAMGWYRQAPGKERELVAAITSGGTTNYADSVKGRFTISRDNAKNTVYLQMNSLKPEDTAVYYCNAVGTFVRFWTDGRDGVTYDYWGQGTKVTVSS | low polyreactivity |
| QVQHVESGGGLVQAGGSLRLSCAASGTTFVLYAMGWYIQAPGKERELVAAITWSGGITYYADSVKGRFTISRDNAKNTVYLQMNSLKPEDTAVYYCNAEQKQYEKSYDYWGQGSQVTVSS | low polyreactivity |
| QVQHVESGGGLVQAGGSLRLSCAASGYTFRSNTMGWYRQAPGKERELVAAISGRGSSTYYADSVKGRFTISRDNAKNTVYLQMNSLKPEDTAVYYCAAQSKYYQYYSWGQGTQVTVSS | high polyreactivity |
| QVQHVESGGGLVQAGGSLRLSCAASGYTFYFYAMGWYRQAPGKERELVAAITGGGTTSYADSVKGRFTISRDNAKNTVYLQMNSLKPEDTAVYYCNVLFADKSDYWGPGTQVTVSS | low polyreactivity |
| QVQHVESGGGLVQAGGSLRLSCAASVRTLYYYAMGWYRQAPGKERELVAAISGGGRTYYADSVKGRFTISRDNAKNTVYLQMNSLKPEDTAVYYCASRYRKSGLDNYWGQGTQVTVSS | high polyreactivity |
